Experimental data: patent US20200353049A1

Key:
[1] = target: IL-22R1a extracellular domain (ECD) (UniProt Q8N6P7); assay: binding ELISA on plate-coated IL-22R1a ECD, relative to Reference Standard (100%); stored -20 C, 60 months
[2] = target: IL-22R1a extracellular domain (ECD) (UniProt Q8N6P7); assay: binding ELISA on plate-coated IL-22R1a ECD, relative to Reference Standard (100%); stored 5 C, 6 months
[3] = target: IL-22R1a extracellular domain (ECD) (UniProt Q8N6P7); assay: potency assay (binding ELISA on plate-coated IL-22R1a ECD); change after 2 weeks at 40 C; this end matches Reference Standard Batch in Table 26 (104 to 71)
[4] = target: IL-22R1a extracellular domain (ECD) (UniProt Q8N6P7); assay: binding ELISA on plate-coated IL-22R1a ECD, relative to Reference Standard (100%); stored -20 C, 3 months
[5] = target: IL-22R1a extracellular domain (ECD) (UniProt Q8N6P7); assay: binding ELISA on plate-coated IL-22R1a ECD, relative to Reference Standard (100%); stored -20 C, 24 months
[6] = target: IL-22R1a extracellular domain (ECD) (UniProt Q8N6P7); assay: potency assay (binding ELISA on plate-coated IL-22R1a ECD), relative to reference standard (100%); stored 5 C, 24 months
[7] = target: IL-22R1a extracellular domain (ECD) (UniProt Q8N6P7); assay: binding ELISA on plate-coated IL-22R1a ECD, relative to Reference Standard (100%); stored -20 C, 9 months
[8] = target: IL-22R1a extracellular domain (ECD) (UniProt Q8N6P7); assay: potency assay (binding ELISA on plate-coated IL-22R1a ECD), relative to reference standard (100%); stored 5 C, 48 months
[9] = target: IL-22R1a extracellular domain (ECD) (UniProt Q8N6P7); assay: binding ELISA on plate-coated IL-22R1a ECD, relative to Reference Standard (100%); T=0
[10] = target: IL-22R1a extracellular domain (ECD) (UniProt Q8N6P7); assay: binding ELISA on plate-coated IL-22R1a ECD, relative to Reference Standard; pH 7.0 formulation stored 1 week at 40 C
[11] = target: IL-22R1a extracellular domain (ECD) (UniProt Q8N6P7); assay: potency assay (binding ELISA on plate-coated IL-22R1a ECD), relative to reference standard (100%); stored 5 C, 30 months
[12] = target: IL-22R1a extracellular domain (ECD) (UniProt Q8N6P7); assay: binding ELISA on plate-coated IL-22R1a ECD, relative to Reference Standard (100%); stored -20 C, 48 months
[13] = target: IL-22R1a extracellular domain (ECD) (UniProt Q8N6P7); assay: potency assay (binding ELISA on plate-coated IL-22R1a ECD), relative to reference standard (100%); stored 25 C, 1 month
[14] = target: IL-22R1a extracellular domain (ECD) (UniProt Q8N6P7); assay: binding ELISA on plate-coated IL-22R1a ECD, relative to Reference Standard (100%); stored 5 C, 3 months
[15] = target: IL-22R1a extracellular domain (ECD) (UniProt Q8N6P7); assay: binding ELISA on plate-coated IL-22R1a ECD, relative to Reference Standard (100%); stored -20 C, 48 months; remark: listed apart in the source
[16] = target: IL-22R1a extracellular domain (ECD) (UniProt Q8N6P7); assay: potency assay (binding ELISA on plate-coated IL-22R1a ECD), relative to reference standard (100%); stored 5 C, 36 months
[17] = target: IL-22R1a extracellular domain (ECD) (UniProt Q8N6P7); assay: binding ELISA on plate-coated IL-22R1a ECD, relative to Reference Standard (100%); stored -20 C, 6 months
[18] = target: IL-22R1a extracellular domain (ECD) (UniProt Q8N6P7); assay: potency assay (binding ELISA on plate-coated IL-22R1a ECD), relative to reference standard (100%); stored 25 C, 6 months
[19] = target: IL-22R1a extracellular domain (ECD) (UniProt Q8N6P7); assay: potency assay (binding ELISA on plate-coated IL-22R1a ECD), relative to reference standard; 40 C stress, day 5
[20] = target: IL-22R1a extracellular domain (ECD) (UniProt Q8N6P7); assay: potency assay (binding ELISA on plate-coated IL-22R1a ECD), relative to reference standard (100%); stored 25 C, 3 months
[21] = target: IL-22R1a extracellular domain (ECD) (UniProt Q8N6P7); assay: binding ELISA on plate-coated IL-22R1a ECD, relative to Reference Standard (100%); stored -20 C, 6 months; remark: listed apart in the source
[22] = target: IL-22R1a extracellular domain (ECD) (UniProt Q8N6P7); assay: binding ELISA on plate-coated IL-22R1a ECD, relative to Reference Standard (100%); stored -20 C, 36 months
[23] = target: IL-22R1a extracellular domain (ECD) (UniProt Q8N6P7); assay: binding ELISA on plate-coated IL-22R1a ECD, relative to Reference Standard (100%); stored -20 C, 3 months; remark: listed apart in the source
[24] = target: IL-22R1a extracellular domain (ECD) (UniProt Q8N6P7); assay: binding ELISA on plate-coated IL-22R1a ECD, relative to Reference Standard; 10 mM sodium phosphate, 240 mM sucrose, 0.02% PS20, pH 7.0; control sample
[25] = target: IL-22R1a extracellular domain (ECD) (UniProt Q8N6P7); assay: potency assay (binding ELISA on plate-coated IL-22R1a ECD), relative to reference standard (100%); stored 5 C, 42 months
[26] = target: IL-22R1a extracellular domain (ECD) (UniProt Q8N6P7); assay: binding ELISA on plate-coated IL-22R1a ECD, relative to Reference Standard (100%); T=0; remark: listed apart in the source
[27] = target: IL-22R1a extracellular domain (ECD) (UniProt Q8N6P7); assay: potency assay (binding ELISA on plate-coated IL-22R1a ECD), relative to reference standard (100%); T=0
[28] = target: IL-22R1a extracellular domain (ECD) (UniProt Q8N6P7); assay: potency assay (binding ELISA on plate-coated IL-22R1a ECD), relative to reference standard (100%); stored 5 C, 24 months; remark: listed apart in the source

Sequence of UniProt Q8N6P7 (Q8N6P7 16-228 limits assumed): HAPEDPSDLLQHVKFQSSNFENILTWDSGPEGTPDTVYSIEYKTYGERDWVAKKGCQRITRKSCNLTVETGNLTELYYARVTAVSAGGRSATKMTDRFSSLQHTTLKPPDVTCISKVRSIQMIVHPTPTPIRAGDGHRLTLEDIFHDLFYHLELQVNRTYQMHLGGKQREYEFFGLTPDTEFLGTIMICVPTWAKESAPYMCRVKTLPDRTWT

IL-22 Fc fusion protein
Potency by Binding Assay (% relative potency) (% relative potency) [1]: 99
Potency by Binding Assay (% relative potency) (% relative potency) [2]: 98
decrease in % relative potency (% relative potency) [3]: 33
Potency by Binding Assay (% relative potency) (% relative potency) [4]: 104
Potency by Binding Assay (% relative potency) (% relative potency) [5]: 70
Potency (% relative potency) (% relative potency) [6]: 66
Potency by Binding Assay (% relative potency) (% relative potency) [7]: 68
Potency (% relative potency) (% relative potency) [8]: 91
Potency by Binding Assay (% relative potency) (% relative potency) [9]: 108
Estimated % relative potency (n = 2) (% relative potency) [10]: 81
Potency (% relative potency) (% relative potency) [11]: 65
Potency by Binding Assay (% relative potency) (% relative potency) [12]: 72
Potency (% relative potency) (% relative potency) [13]: 68
Potency by Binding Assay (% relative potency) (% relative potency) [14]: 105
Potency by Binding Assay (% relative potency) (% relative potency) [15]: 93
Potency (% relative potency) (% relative potency) [16]: 99
Potency by Binding Assay (% relative potency) (% relative potency) [17]: 73
Potency (% relative potency) (% relative potency) [18]: 72
Potency (% relative potency) (% relative potency) [19]: 80
Potency (% relative potency) (% relative potency) [20]: 57
Potency by Binding Assay (% relative potency) (% relative potency) [21]: 112
Potency by Binding Assay (% relative potency) (% relative potency) [22]: 107
Potency by Binding Assay (% relative potency) (% relative potency) [23]: 72
Estimated % relative potency (n = 2) (% relative potency) [24]: 89
Potency (% relative potency) (% relative potency) [25]: 87
Potency by Binding Assay (% relative potency) (% relative potency) [26]: 71
Potency (% relative potency) (% relative potency) [27]: 73
Potency (% relative potency) (% relative potency) [28]: 83
